Values of other authors as cited in publication PMC7809386.
Like-named read-outs stand apart in the source and are kept apart here.

Tests used:
SecA (Escherichia coli) [1] = biological target: SecA (Escherichia coli) (UniProt P10408)
SecA (Escherichia coli) [2] = biological target: SecA (Escherichia coli) (UniProt P10408); remark: listed apart in the source

Substance: SecA (from UniProt P10408)
- Kd (SecA (Escherichia coli) [1]): 0.74 nM
- Kd (SecA (Escherichia coli) [2]): 100 nM
